Where two headings read alike, the source gives them in different places. Bridge positions count the residues as written; N and C are the ends. Square brackets hold non-standard residues; d marks the D form. Trp(7-Ph) = N[C@@H](Cc1c[nH]c2c(-c3ccccc3)cccc12)C(=O)O; Trp(5-CN) = N#Cc1ccc2[nH]cc(C[C@H](N)C(=O)O)c2c1; Trp(7-Me) = Cc1cccc2c(C[C@H](N)C(=O)O)c[nH]c12; 2Nal = N[C@@H](Cc1ccc2ccccc2c1)C(=O)O; AEF = NCCOc1ccc(C[C@H](N)C(=O)O)cc1; dNMeY = CN[C@H](Cc1ccc(O)cc1)C(=O)O; 3Pal = N[C@@H](Cc1cccnc1)C(=O)O; Cit = NC(=O)NCCC[C@H](N)C(=O)O; αMeL = CC(C)C[C@](C)(N)C(=O)O; Pen = CC(C)(S)[C@H](N)C(=O)O; Trp(5-Ca) = not defined here; αMeK = C[C@](N)(CCCCN)C(=O)O; Ac5c = NC1(C(=O)O)CCCC1; Thp = NC1(C(=O)O)CCOCC1; Abu = CC[C@H](N)C(=O)O; Sar = CNCC(=O)O
T1: human IL-23R (human, UniProt Q5VWK5 24-629)
T1 sequence (looked up): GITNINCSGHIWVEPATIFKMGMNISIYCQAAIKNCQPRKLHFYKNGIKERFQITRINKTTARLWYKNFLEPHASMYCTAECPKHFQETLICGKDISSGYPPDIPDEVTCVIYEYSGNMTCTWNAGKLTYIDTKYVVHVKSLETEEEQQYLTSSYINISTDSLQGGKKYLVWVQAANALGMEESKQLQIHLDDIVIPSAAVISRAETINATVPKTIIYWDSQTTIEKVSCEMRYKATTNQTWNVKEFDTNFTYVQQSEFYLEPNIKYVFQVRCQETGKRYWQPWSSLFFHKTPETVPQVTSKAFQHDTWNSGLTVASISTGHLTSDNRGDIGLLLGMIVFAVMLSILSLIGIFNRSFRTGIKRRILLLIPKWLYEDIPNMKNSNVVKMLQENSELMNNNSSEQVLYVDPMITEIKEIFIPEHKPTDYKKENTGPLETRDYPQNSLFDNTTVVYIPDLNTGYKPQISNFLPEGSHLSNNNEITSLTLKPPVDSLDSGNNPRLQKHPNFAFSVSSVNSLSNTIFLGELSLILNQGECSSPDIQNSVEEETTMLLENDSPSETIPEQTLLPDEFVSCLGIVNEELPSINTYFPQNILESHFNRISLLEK

T2: interleukin-23 receptor (IL-23R) (human, UniProt Q5VWK5 24-629)
T2 sequence (looked up): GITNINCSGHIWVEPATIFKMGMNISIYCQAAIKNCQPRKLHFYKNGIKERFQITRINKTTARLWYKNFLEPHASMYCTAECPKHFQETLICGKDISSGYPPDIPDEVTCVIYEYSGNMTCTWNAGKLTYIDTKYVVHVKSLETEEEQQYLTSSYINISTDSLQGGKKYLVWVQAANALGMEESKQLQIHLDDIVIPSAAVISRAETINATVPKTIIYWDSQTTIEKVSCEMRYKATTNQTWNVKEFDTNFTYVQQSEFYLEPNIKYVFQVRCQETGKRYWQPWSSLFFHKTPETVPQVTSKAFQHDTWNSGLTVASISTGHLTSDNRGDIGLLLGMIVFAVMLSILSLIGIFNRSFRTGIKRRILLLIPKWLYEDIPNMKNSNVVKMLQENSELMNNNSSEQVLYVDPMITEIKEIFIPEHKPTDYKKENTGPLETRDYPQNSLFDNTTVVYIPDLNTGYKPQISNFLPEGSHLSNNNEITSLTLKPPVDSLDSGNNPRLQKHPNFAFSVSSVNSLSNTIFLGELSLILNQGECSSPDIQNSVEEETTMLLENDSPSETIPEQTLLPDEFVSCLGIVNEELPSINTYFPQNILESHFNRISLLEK


Columns and labels:
Experiment in all cases: cell-based or functional assay
[1] = target: T1, human IL-23R
[2] = target: T2, interleukin-23 receptor (IL-23R)
[3] = target: T1, human IL-23R; remark: listed apart in the source

Binder | PBMC pSTAT3 IC50 [1] | pStat3 HTRF IC50 [1] | further results
RXQTWQCFXXENNY (Ac-[(D)Arg]-[Abu]-Q-T-W-Q-[Cys]-Phe[4-(2-aminoethoxy)]-[2-Nal]-[THP]-E-N-N-[(D)NMeTyr]-NH2; Abu-Cys thioether) [Peptide No. 8] | 1 nM |  | 
Ac-[Pen]NT[Trp(7-Me)][Cit][Pen][AEF][2Nal][αMeL]K(Ac)N[dH]-NH2 (disulfide 1-6; SMILES CC(=O)NCCCC[C@H](NC(=O)[C@](C)(CC(C)C)NC(=O)[C@H](Cc1ccc2ccccc2c1)NC(=O)[C@H](Cc1ccc(OCCN)cc1)NC(=O)[C@H]1NC(=O)[C@H](CCCNC(N)=O)NC(=O)[C@H](Cc2c[nH]c3c(C)cccc23)NC(=O)[C@H]([C@@H](C)O)NC(=O)[C@H](CC(N)=O)NC(=O)[C@@H](NC(C)=O)C(C)(C)SSC1(C)C)C(=O)N[C@@H](CC(N)=O)C(=O)N[C@H](Cc1c[nH]cn1)C(N)=O) [Peptide No. 85] | 3 nM |  | 
Ac-[Pen]NT[Trp(7-Me)]K(Ac)[Pen][AEF][2Nal][Thp]EN[3Pal][dNMeY]-NH2 (disulfide 1-6; SMILES CC(=O)NCCCC[C@@H]1NC(=O)[C@H](Cc2c[nH]c3c(C)cccc23)NC(=O)[C@H]([C@@H](C)O)NC(=O)[C@H](CC(N)=O)NC(=O)[C@@H](NC(C)=O)C(C)(C)SSC(C)(C)[C@@H](C(=O)N[C@@H](Cc2ccc(OCCN)cc2)C(=O)N[C@@H](Cc2ccc3ccccc3c2)C(=O)NC2(C(=O)N[C@@H](CCC(=O)O)C(=O)N[C@@H](CC(N)=O)C(=O)N[C@@H](Cc3cccnc3)C(=O)N(C)[C@H](Cc3ccc(O)cc3)C(N)=O)CCOCC2)NC1=O) [Peptide No. 121 (SEQ ID NO: 121)] |  |  | IC50, NK Cell Assay (IFNγ in supernatant of human NK cells stimulated with IL-23 and IL-18) [2]: 0.04 nM
Ac-[Pen]NT[Trp(7-Ph)]K(Ac)[Pen][AEF][2Nal][Thp]K(Ac)N[3Pal][Sar]-NH2 (disulfide 1-6; SMILES CC(=O)NCCCC[C@@H]1NC(=O)[C@H](Cc2c[nH]c3c(-c4ccccc4)cccc23)NC(=O)[C@H]([C@@H](C)O)NC(=O)[C@H](CC(N)=O)NC(=O)[C@@H](NC(C)=O)C(C)(C)SSC(C)(C)[C@@H](C(=O)N[C@@H](Cc2ccc(OCCN)cc2)C(=O)N[C@@H](Cc2ccc3ccccc3c2)C(=O)NC2(C(=O)N[C@@H](CCCCNC(C)=O)C(=O)N[C@@H](CC(N)=O)C(=O)N[C@@H](Cc3cccnc3)C(=O)N(C)CC(N)=O)CCOCC2)NC1=O) [Peptide No. 117] |  | 20 pM | 
Ac-[dR][Pen]NT[Trp(7-Me)]K(Ac)[Pen][AEF][2Nal][Thp]ENN[dNMeY]-NH2 (disulfide 2-7) [Peptide No. 88] | > 2 µM |  | 
Ac-[Abu]QT[Trp(7-Me)]K(Ac)C[AEF][2Nal][αMeK]K(Ac)N[dK][Sar]-NH2 (thioether 1-6) [Peptide No. 17] | 0.791 nM |  | 
Ac-[Abu]QT[Trp(7-Ph)]K(Ac)C[AEF][2Nal][αMeK]K(Ac)N[dK][Sar]-NH2 (thioether 1-6) [Peptide No. 18] | 1.1 nM |  | 
Ac-[dR][Pen]NT[Trp(7-Me)]K(Ac)[Pen][AEF][2Nal][Ac5c]EN[3Pal][Sar]-NH2 (disulfide 2-7; SMILES CC(=O)NCCCC[C@@H]1NC(=O)[C@H](Cc2c[nH]c3c(C)cccc23)NC(=O)[C@H]([C@@H](C)O)NC(=O)[C@H](CC(N)=O)NC(=O)[C@@H](NC(=O)[C@@H](CCCNC(=N)N)NC(C)=O)C(C)(C)SSC(C)(C)[C@@H](C(=O)N[C@@H](Cc2ccc(OCCN)cc2)C(=O)N[C@@H](Cc2ccc3ccccc3c2)C(=O)NC2(C(=O)N[C@@H](CCC(=O)O)C(=O)N[C@@H](CC(N)=O)C(=O)N[C@@H](Cc3cccnc3)C(=O)N(C)CC(N)=O)CCCC2)NC1=O) [Peptide No. 235] |  |  | PBMC pSTAT3 IC50 [3]: 10 pM

Second part, led by results:

PBMC pSTAT3 IC50 [1] | pStat3 HTRF IC50 [1] | Binder | further results
 | 90 pM | Ac-[Pen]NT[Trp(7-(3-carboxamidophenyl))]K(Ac)[Pen][AEF][2Nal][Thp]EN[3Pal][Sar]-NH2 (disulfide 1-6 (inferred)) [Peptide No. 142] | 
 | > 10 nM | Ac-[Pen]NT[Trp(5-CN)]K(Ac)[Pen][AEF][2Nal][Thp]EN[3Pal][Sar]-NH2 (disulfide 1-6 (inferred)) [Peptide No. 154] | 
 | > 10 nM | Ac-[Pen]NT[Trp(5-Ca)]K(Ac)[Pen][AEF][2Nal][Thp]EN[3Pal][Sar]-NH2 (disulfide 1-6; reading uncertain; also: printed as Ac-[Pen]-N-T-[W(5-Ca)]-[Lys(Ac)]-[Pen]-Phe[4-(2-aminoethoxy)]-[2-Nal]-[THP]-E-N-[3Pal]-[Sarc]-NH2; Pen-Pen disulfide) [Peptide No. 160] | 
 | > 10 nM | Ac-[Pen]NT[Trp(5-Ph)]K(Ac)[Pen][AEF][2Nal][Thp]EN[3Pal][Sar]-NH2 (disulfide 1-6 (inferred)) [Peptide No. 150] | 

From US20210261622A1 (Janssen / Centocor, published 2021)
